The numbers were not newly measured in article PMC9437294, which cites them from elsewhere.

In general, pKd refers to −log10 of the Kd, conventionally taken in molar units.

In this data set the target is 5-HT1A receptor C-terminus (UniProt P19327).

pKd: −log10 of the molar value.

As to “Yif1B N-terminal region (from UniProt Q6PEC3)”, the pKd was 7.43.
